The text below walks through data of patent US20240024477A1.

The assay deals with HLA-E bound RL9 presented on cells with their own HLA-E (RL9 pulsed autologous B cells (human; HIV-1) (UniProt P13747). Nature of the assay: cell-based or functional assay.

With “irrelevant TCR specific for HLAA*0201-NY-ESO-1157-165 (…) (IG4), transduced into CD8 T cells”, the reduction of % p24+ cells, HIV-1 NL4.3-infected primary CD4+ T cells, E:T 5:1 came out at 23.5%.
